Self-cleavage data for 167 variants are collected here from the RNAGym collection of RNA variant scans (doi:10.7554/elife.90254).

To fix the notation:
B1: LINE1-mini (parent)
chain: GGCAGAGCUCAACACAGCGUGGCAAAGUGGCUGUGGCUAGACUGCC

The variants in this data set derive from B1. As to the kind of experiment: self-cleavage, relative activity (ratio to wild type); higher = more cleavage; in vitro, sequencing; the parent is a self-cleaving ribozyme.
Regarding A4G U9A, the self-cleavage turned out to be 0.21.
Next, A4G U9G: 0.23; A4G U9C: 0.02; A4U A11C: 0.04.
Regarding A4U A11U, the self-cleavage was 0.04.
Next, A4U A11G: 0.04; A4U C31A: 0.05; A4U C31U: 0.1.
To A4U C31G belongs 0.05; to A4G G22C, 0.91.
To A4G G22U belongs 1.14; to A4G G22A, 1.25.
Regarding A4G U43C, the self-cleavage turned out to be 1.34.
To A4G U43G belongs 1.35; to A4G U43A, 0.12.
To A4U G40A belongs 0.17.
To A4U G40C belongs 0.07; to A4U G40U, 0.14.
Turning to A4G G33C, the self-cleavage was found to be 0.07.
Next, A4G G33U: 0.16; A4G G33A: 0.12; A4C G33C: 0.04.
For A4C G33U, the self-cleavage stood at 0.06.
To A4C G33A belongs 0.29; to A4U G33U, 0.12; to A4U G33A, 0.07.
Next, A4U G33C: 0.09.
To A4C G19U belongs 0.06.
For the variant A4C G19C, the self-cleavage was found to be 0.07.
To A4C G19A belongs 0.28.
Regarding A4U G22A, the self-cleavage was 0.16.
To A4U G22U belongs 0.52; to A4U G22C, 0.08.
Regarding A4C U38C, the self-cleavage worked out at 0.12.
To A4C U38G belongs 0.04; to A4C U38A, 0.12; to A4U G29U, 0.23.
As for A4U G29A, the self-cleavage stood at 0.2.
A4U G29C: the self-cleavage is 0.24.
In the case of A4G G44C, the self-cleavage worked out at 0.08.
Next, A4G G44U: 0.16; A4G G44A: 0.48; A4G C42G: 0.02.
Next, A4G C42A: 0.09; A4G C42U: 0.22.
Next, A4C G36C: 0.09; A4C G36A: 0.73; A4C G36U: 0.1.
Take A4U C37G: the self-cleavage came out at 0.08.
Next, A4U C37U: 0.15; A4U C37A: 0.16; A4G U32A: 0.06.
For A4G U32G, the self-cleavage is 0.08.
Turning to A4G U32C, the self-cleavage is 0.15.
To A4G A24G belongs 1.09; to A4G A24U, 1.02.
For the variant A4G A24C, the self-cleavage amounted to 0.25.
Next, A4C G7A: 0.87.
To A4C G7U belongs 0.21; to A4C G7C, 0.17; to A4U C8U, 0.26.
As for A4U C8G, the self-cleavage was 0.09.
To A4U C8A belongs 0.23; to A4U C18U, 0.11.
To A4U C18G belongs 0.08.
To A4U C18A belongs 0.07.
Take A4C G35C: the self-cleavage came out at 0.11.
Next, A4C G35U: 0.18; A4C G35A: 0.17; A4U C45G: 0.15.
With A4U C45U, the self-cleavage was 0.16.
To A4U C45A belongs 0.1; to A4G A41C, 0.19.
To A4G A41U belongs 0.3.
Next, A4G A41G: 0.11; A4U A26C: 0.14; A4U A26U: 0.2.
With A4U A26G, the self-cleavage was 0.14.
For A4U C23U, the self-cleavage worked out at 0.41.
Next, A4U C23G: 0.37; A4U C23A: 0.16.
To A4G belongs 0.5; to A4U, 0.29.
Next, A4U A24G: 0.26.
For the variant A4U A24C, the self-cleavage is 0.4.
To A4U A24U belongs 0.21.
For the variant A4G C13U, the self-cleavage is 0.23.
Turning to A4G C13G, the self-cleavage was 0.2.
Next, A4G C13A: 0.27; A4U C42U: 0.14.
For the variant A4U C42G, the self-cleavage was found to be 0.08.
To A4U C42A belongs 0.11.
Next, A4G G40U: 0.15.
To A4G G40C belongs 0.1; to A4G G40A, 0.13; to A4C C46G, 0.13.
For the variant A4C C46A, the self-cleavage came to 0.14.
Take A4C C46U: the self-cleavage was found to be 0.18.
Next, A4G U28G: 0.3.
On to A4G U28C, for which the self-cleavage turned out to be 1.09.
Turning to A4G U28A, the self-cleavage worked out at 0.13.
Next, A4G A26G: 0.48.
Regarding A4G A26C, the self-cleavage was determined as 0.63.
Next, A4G A26U: 0.39.
Regarding A4C U32C, the self-cleavage is 0.1.
To A4C U32G belongs 0.1.
Next, A4C U32A: 0.18; A4U U9C: 0.07.
To A4U U9A belongs 0.29; to A4U U9G, 0.07; to A4C C15G, 0.04.
Consider A4C C15U, for which the self-cleavage amounted to 0.13.
With A4C C15A, the self-cleavage was 0.1.
Next, A4C U9G: 0.24; A4C U9A: 0.18; A4C U9C: 0.04.
A4C C42A: the self-cleavage came out at 0.13.
To A4C C42U belongs 0.2.
As to A4C C42G, the self-cleavage came to 0.05.
Next, A4U A25C: 0.08.
Take A4U A25G: the self-cleavage is 0.08.
To A4U A25U belongs 0.84.
Consider A4C C18G, for which the self-cleavage is 0.11.
To A4C C18U belongs 0.05.
Regarding A4C C18A, the self-cleavage amounted to 0.07.
With A4G A14G, the self-cleavage was 0.2.
To A4G A14C belongs 0.12; to A4G A14U, 0.24.
Consider A4G A11U, for which the self-cleavage amounted to 0.05.
To A4G A11G belongs 0.12.
On to A4G A11C, for which the self-cleavage turned out to be 0.04.
For A4C C45U, the self-cleavage was determined as 0.2.
Next, A4C C45A: 0.12; A4C C45G: 0.17; A4U C46U: 0.19.
Next, A4U C46G: 0.12.
Next, A4U C46A: 0.16; A4C U43C: 0.08.
On to A4C U43A, for which the self-cleavage is 0.06.
For the variant A4C U43G, the self-cleavage is 0.17.
Next, A4U G35U: 0.13.
As for A4U G35A, the self-cleavage turned out to be 0.14.
Next, A4U G35C: 0.11.
Next, A4U G44A: 0.17.
To A4U G44C belongs 0.12; to A4U G44U, 0.25; to A4C G44U, 0.13.
In the case of A4C G44C, the self-cleavage turned out to be 0.12.
Next, A4C G44A: 0.16; A4G C23G: 0.41.
To A4G C23A belongs 0.44.
Consider A4G C23U, for which the self-cleavage worked out at 0.5.
To A4U G19A belongs 0.68; to A4U G19U, 0.15; to A4U G19C, 0.05.
As to A4C G30U, the self-cleavage was 0.19.
Next, A4C G30A: 0.24.
Consider A4C G30C, for which the self-cleavage was found to be 0.07.
Next, A4G C15G: 0.14; A4G C15A: 0.08; A4G C15U: 0.65.
To A4U C15U belongs 0.19; to A4U C15A, 0.08.
To A4U C15G belongs 0.06; to A4C G40A, 0.16.
With A4C G40U, the self-cleavage amounted to 0.13.
Next, A4C G40C: 0.12.
